15 molecules from patent US20240343814A1 can be followed below.

For test [1], the target named is Recombinant human his-tagged IGF 1R extracellular domain protein (human) (UniProt P08069). As to the kind of experiment: SPR, captured IgG, IGF-1R ECD-his analyte, dissociation pH 7.4. On the technique in general: Surface plasmon resonance follows binding to a sensor surface in real time, without labels.
Test [2] has the same target. The test can be described thus: SPR, captured IgG, IGF-1R ECD-his analyte, dissociation pH 6.

B1: VRDN-02542 (antibody, V domains shown)
VH: EVQLVQSGGGLVKPGGSLRLSCAASGFTFSSFAMHWVRQAPGKGLEWISVIDTRGATYYADSVKGRFTISRDNAKNSLYLQMNSLRAEDTAVYYCARLGNFYYGMDVWGQGTTVTVSS
VL: EIVLTQSPGTLSVSPGERATLSCRASQSIGSSLHWYQQKPGQAPRLLIKYASHSLSGIPDRFSGSGSGTDFTLTISRLEPEDFAVYYCHQSSRLPHTFGQGTKVEIK
On to B1, for which, in test [1], the equilibrium dissociation constant (Kd) turned out to be 0.00535 nM, the koff amounted to 1e-06 s⁻¹ and the kon turned out to be 187000 M⁻¹ s⁻¹. Besides, in test [2], the Kd was determined as 0.0389 nM, the koff was 1e-06 s⁻¹ and the kon was determined as 25700 M⁻¹ s⁻¹.

B2: VRDN-02548 (antibody, V domains shown)
VH: EVQLVQSGGGLVKPGGSLRLSCAASGFTFSSFAMHWVRQAPGKGLEWISVIDTRGATYYADSVKGRFTISRDNAKNSLYLQMNSLRAEDTAVYYCARLGNFYYGMDVWGQGTTVTVSS
VL: EIVLTQSPGTLSVSPGERATLSCRASQSIGSSLHWYQQKPGQAPRLLIKYASQSLSGIPDRFSGSGSGTDFTLTISRLEPEDFAVYYCHQSHRLPHTFGQGTKVEIK
For the molecule B2, in test [1], the Kd turned out to be 0.721 nM, the koff is 8.72e-05 s⁻¹ and the kon was determined as 121000 M⁻¹ s⁻¹. Further, in test [2], the Kd is 0.0251 nM, the koff stood at 1e-06 s⁻¹ and the kon was 39800 M⁻¹ s⁻¹.

B3: VRDN-02543 (antibody, V domains shown)
VH: EVQLVQSGGGLVKPGGSLRLSCAASGFTFSSFAMHWVRQAPGKGLEWISVIDTRGATYYADSVKGRFTISRDNAKNSLYLQMNSLRAEDTAVYYCARLGNFYYGMDVWGQGTTVTVSS
VL: EIVLTQSPGTLSVSPGERATLSCRASQSIGSSLHWYQQKPGQAPRLLIKYASQHLSGIPDRFSGSGSGTDFTLTISRLEPEDFAVYYCHQSSRLPHTFGQGTKVEIK
For B3, in test [1], the Kd is 0.391 nM, the koff worked out at 4.38e-05 s⁻¹ and the kon was 112000 M⁻¹ s⁻¹. In test [2], the Kd was 0.025 nM, the koff came to 1e-06 s⁻¹ and the kon is 40000 M⁻¹ s⁻¹.

B4: VRDN-02559 (antibody, V domains shown)
VH: EVQLVQSGGGLVKPGGSLRLSCAASGFTFSSFHMHWVRQAPGKGLEWISVIDTRGATYYADSVKGRFTISRDNAKNSLYLQMNSLRAEDTAVYYCHRLGNFYYGMDVWGQGTTVTVSS
VL: EIVLTQSPGTLSVSPGERATLSCRASQSIGSSLHWYQQKPGQAPRLLIKYASQSLSGIPDRFSGSGSGTDFTLTISRLEPEDFAVYYCHQSSRLPHTFGQGTKVEIK
Regarding B4, in test [1], the dissociation constant (Kd) was 0.593 nM, the koff is 0.000503 s⁻¹ and the kon is 849000 M⁻¹ s⁻¹. Further, in test [2], the Kd turned out to be 1.74 nM, the koff worked out at 0.000567 s⁻¹ and the kon was 327000 M⁻¹ s⁻¹.

B5: VRDN-02551 (antibody, V domains shown)
VH: EVQLVQSGGGLVKPGGSLRLSCAASGFTFSSFAMHWVRQAPGKGLEWISVIDTRGATYYADSVKGRFTISRDNAKNSLYLQMNSLRAEDTAVYYCARLGNFYYGMDVWGQGTTVTVSS
VL: EIVLTQSPGTLSVSPGERATLSCRASQSIGSSLHWYQQKPGQAPRLLIKYASQSLSGIPDRFSGSGSGTDFTLTISRLEPEDFAVYYCHQSSRLHHTFGQGTKVEIK
For the molecule B5, in test [1], the Kd was determined as 0.771 nM, the dissociation rate constant (koff) was 6.38e-05 s⁻¹ and the association rate constant (kon) came to 82800 M⁻¹ s⁻¹. In addition, in test [2], the Kd is 0.0348 nM, the koff was found to be 1e-06 s⁻¹ and the kon worked out at 28700 M⁻¹ s⁻¹.

B6: VRDN-02556 (antibody, V domains shown)
VH: EVQLVQSGGGLVKPGGSLRLSCAASGFTFSSFAMHWVRQAPGKGLEWISVIDTRGATYYADSVKGRFTISRDNAKNSLYLQMNSLRAEDTAVYYCARLGNFYYHMDVWGQGTTVTVSS
VL: EIVLTQSPGTLSVSPGERATLSCRASQSIGSSLHWYQQKPGQAPRLLIKHASQSLSGIPDRFSGSGSGTDFTLTISRLEPEDFAVYYCHQSSRLPHTFGQGTKVEIK
Turning to B6, in test [1], the Kd was found to be 10.4 nM, the koff was 0.0127 s⁻¹ and the kon came out at 1.22e+06 M⁻¹ s⁻¹. Also, in test [2], the Kd amounted to 8.47 nM, the koff was 0.0146 s⁻¹ and the kon was found to be 1.72e+06 M⁻¹ s⁻¹.

B7: VRDN-02547 (antibody, V domains shown)
VH: EVQLVQSGGGLVKPGGSLRLSCAASGFTFSSFAMHWVRQAPGKGLEWISVIDTRGATYYADSVKGRFTISRDNAKNSLYLQMNSLRAEDTAVYYCARLGNFYYGMDVWGQGTTVTVSS
VL: EIVLTQSPGTLSVSPGERATLSCRASQSIGSSLHWYQQKPGQAPRLLIKYASQSLSGIPDRFSGSGSGTDFTLTISRLEPEDFAVYYCHQHSRLPHTFGQGTKVEIK
Regarding B7, in test [1], the dissociation constant (Kd) came out at 0.0084 nM, the koff worked out at 1e-06 s⁻¹ and the kon came to 119000 M⁻¹ s⁻¹. Besides, in test [2], the equilibrium dissociation constant (Kd) stood at 0.0251 nM, the koff was 1e-06 s⁻¹ and the kon came out at 39800 M⁻¹ s⁻¹.

B8: VRDN-02545 (antibody, V domains shown)
VH: EVQLVQSGGGLVKPGGSLRLSCAASGFTFSSFAMHWVRQAPGKGLEWISVIDTRGATYYADSVKGRFTISRDNAKNSLYLQMNSLRAEDTAVYYCARLGNFYYGMDVWGQGTTVTVSS
VL: EIVLTQSPGTLSVSPGERATLSCRASQSIGSSLHWYQQKPGQAPRLLIKYASQSLHGIPDRFSGSGSGTDFTLTISRLEPEDFAVYYCHQSSRLPHTFGQGTKVEIK
As for B8, in test [1], the dissociation constant Kd came out at 0.622 nM, the koff came out at 3.03e-05 s⁻¹ and the kon is 48700 M⁻¹ s⁻¹. In test [2], the dissociation constant Kd was found to be 0.027 nM, the off-rate constant (koff) stood at 1e-06 s⁻¹ and the kon worked out at 37000 M⁻¹ s⁻¹.

B9: VRDN-02544 (antibody, V domains shown)
VH: EVQLVQSGGGLVKPGGSLRLSCAASGFTFSSFAMHWVRQAPGKGLEWISVIDTRGATYYADSVKGRFTISRDNAKNSLYLQMNSLRAEDTAVYYCARLGNFYYGMDVWGQGTTVTVSS
VL: EIVLTQSPGTLSVSPGERATLSCRASQSIGSSLHWYQQKPGQAPRLLIKYASQSHSGIPDRFSGSGSGTDFTLTISRLEPEDFAVYYCHQSSRLPHTFGQGTKVEIK
In the case of B9, in test [1], the dissociation constant Kd came out at 0.483 nM, the koff worked out at 6.18e-05 s⁻¹ and the association rate constant (kon) amounted to 128000 M⁻¹ s⁻¹. Also, in test [2], the dissociation constant Kd stood at 0.0275 nM, the koff was 1e-06 s⁻¹ and the on-rate (kon) turned out to be 36300 M⁻¹ s⁻¹.

B10: VRDN-02557 (antibody, V domains shown)
VH: EVQLVQSGGGLVKPGGSLRLSCAASGFTFSSFAMHWVRQAPGKGLEWISVIDTRGATYYADSVKGRFTISRDNAKNSLYLQMNSLRAEDTAVYYCARLGNFYYGHDVWGQGTTVTVSS
VL: EIVLTQSPGTLSVSPGERATLSCRASQSIGSSLHWYQQKPGQAPRLLIKHASQSLSGIPDRFSGSGSGTDFTLTISRLEPEDFAVYYCHQSSRLPHTFGQGTKVEIK
Consider B10, for which, in test [1], the Kd amounted to 8.16 nM, the koff worked out at 0.00119 s⁻¹ and the kon came to 146000 M⁻¹ s⁻¹. For the same molecule, in test [2], the Kd turned out to be 0.615 nM, the koff came out at 0.00239 s⁻¹ and the kon was found to be 3.88e+06 M⁻¹ s⁻¹.

B11: VRDN-02546 (antibody, V domains shown)
VH: EVQLVQSGGGLVKPGGSLRLSCAASGFTFSSFAMHWVRQAPGKGLEWISVIDTRGATYYADSVKGRFTISRDNAKNSLYLQMNSLRAEDTAVYYCARLGNFYYGMDVWGQGTTVTVSS
VL: EIVLTQSPGTLSVSPGERATLSCRASQSIGSSLHWYQQKPGQAPRLLIKYASQSLSGIPDRFSGSGSGTDFTLTISRLEPEDFAVYYCHHSSRLPHTFGQGTKVEIK
Turning to B11, in test [1], the Kd came to 0.491 nM, the koff turned out to be 5.94e-05 s⁻¹ and the association rate constant (kon) came to 121000 M⁻¹ s⁻¹. In addition, in test [2], the Kd is 0.0259 nM, the koff was determined as 1e-06 s⁻¹ and the kon was 38600 M⁻¹ s⁻¹.

B12: VRDN-02505 (antibody, V domains shown)
VH: EVQLVQSGGGLVKPGGSLRLSCAASGFTFHSFAMHWVRQAPGKGLEWISVIDTRGATYYADSVKGRFTISRDNAKNSLYLQMNSLRAEDTAVYYCARLGNFYYGMDVWGQGTTVTVSS
VL: EIVLTQSPGTLSVSPGERATLSCRASQSIGSSLHWYQQKPGQAPRLLIKYASQSLSGIPDRFSGSGSGTDFTLTISRLEPEDFAVYYCHQSSRLPHTFGQGTKVEIK
On to B12, for which, in test [1], the Kd is 2.6 nM, the koff stood at 0.000375 s⁻¹ and the kon came out at 144000 M⁻¹ s⁻¹. Besides, in test [2], the Kd came out at 0.0422 nM, the koff was 1e-06 s⁻¹ and the kon amounted to 23700 M⁻¹ s⁻¹.

B13: VRDN-02549 (antibody, V domains shown)
VH: EVQLVQSGGGLVKPGGSLRLSCAASGFTFSSFAMHWVRQAPGKGLEWISVIDTRGATYYADSVKGRFTISRDNAKNSLYLQMNSLRAEDTAVYYCARLGNFYYGMDVWGQGTTVTVSS
VL: EIVLTQSPGTLSVSPGERATLSCRASQSIGSSLHWYQQKPGQAPRLLIKYASQSLSGIPDRFSGSGSGTDFTLTISRLEPEDFAVYYCHQSSHLPHTFGQGTKVEIK
B13: in test [1], the Kd amounted to 0.327 nM, the koff came to 3.89e-05 s⁻¹ and the association rate constant (kon) worked out at 119000 M⁻¹ s⁻¹. For the same molecule, in test [2], the Kd came out at 0.0251 nM, the koff was determined as 1e-06 s⁻¹ and the association rate constant (kon) came out at 39800 M⁻¹ s⁻¹.

B14: VRDN-02552 (antibody, V domains shown)
VH: EVQLVQSGGGLVKPGGSLRLSCAASGFTFSSFAMHWVRQAPGKGLEWISVIDTRGATYYADSVKGRFTISRDNAKNSLYLQMNSLRAEDTAVYYCARLGNFYYGMDVWGQGTTVTVSS
VL: EIVLTQSPGTLSVSPGERATLSCRASQSIGSSLHWYQQKPGQAPRLLIKYASQSLSGIPDRFSGSGSGTDFTLTISRLEPEDFAVYYCHQSSRLPHHFGQGTKVEIK
As to B14, in test [1], the dissociation constant Kd came out at 0.0311 nM, the koff was determined as 1e-06 s⁻¹ and the association rate constant (kon) stood at 32200 M⁻¹ s⁻¹. For the same molecule, in test [2], the Kd amounted to 0.0239 nM, the koff was 1e-06 s⁻¹ and the kon amounted to 41900 M⁻¹ s⁻¹.

B15: VRDN-02550 (antibody, V domains shown)
VH: EVQLVQSGGGLVKPGGSLRLSCAASGFTFSSFAMHWVRQAPGKGLEWISVIDTRGATYYADSVKGRFTISRDNAKNSLYLQMNSLRAEDTAVYYCARLGNFYYGMDVWGQGTTVTVSS
VL: EIVLTQSPGTLSVSPGERATLSCRASQSIGSSLHWYQQKPGQAPRLLIKYASQSLSGIPDRFSGSGSGTDFTLTISRLEPEDFAVYYCHQSSRHPHTFGQGTKVEIK
Regarding B15, in test [1], the Kd amounted to 0.131 nM, the koff came out at 2.09e-05 s⁻¹ and the kon was determined as 160000 M⁻¹ s⁻¹. Further, in test [2], the dissociation constant (Kd) is 0.027 nM, the koff turned out to be 1e-06 s⁻¹ and the association rate constant (kon) amounted to 37000 M⁻¹ s⁻¹.

One may read the Kd as the constant that tells how readily two partners part at equilibrium. One may read the koff as the rate constant with which the complex falls apart. As usually defined, the kon is a measure of how fast the partners come together.
